IntAct's records for PubMed 21115843

Target: notc1_mouse Notch1 (UniProt Q01705)

Presenilin-1 (Homo sapiens) (from UniProt P49768) D385A
effect of a mutation on the interaction: disrupting interaction
